According to PMC6988801, “Characterization of a Dimeric Arginase From Zymomonas mobilis ZM4” (Frontiers in Microbiology, 2019):
Blank lines part the entries; values can stand above or below the molecule they belong to.

What was measured:
zmARG = molecular target: T1, zmARG (Zymomonas mobilis, UniProt Q5NQE9); assay: arginase activity assay kit, urea colorimetric at […] nm; type: biochemical; details: read-out: % inhibition at 5 mM
T1 construct: gene ZMO0432; full length Met1-Lys290; E. coli BL21(DE3) Star, pSKB3, N-terminal His6 with TEV site (25 extra residues); GH left after cleavage; EDTA-dialysed; dimer 64 kDa

purified protein = substrate: N=C(N)NCCC[C@H](N)C(=O)O; assay: purified protein; type: biochemical, Zymomonas mobilis; details: Mn-dependent enzyme; metal, pH and temperature of the kinetic run not given
[1] = molecular target: the molecule itself; assay: AF4-MALS; asymmetrical flow field-flow fractionation with multi-angle light scattering; Eclipse DUALTEC AF4, DAWN Heleos II 18-angle MALS; Zimm model

inhibition at 5000 µM (zmARG): ~95%
Molecule: N[C@@H](CCCCB(O)O)C(=O)O [ABH, 2(S)-amino-6-boronohexanoic acid]

B1: zmARG (Zymomonas mobilis subsp. mobilis ZM4 = ATCC 31821) (protein)
chain: MSSINKPLRLIFPQWQGGDNPPYYLGSQLLAWLSPDPKGAVEEVPVPKPTGEPLQEENGIVGRSILIDQLSEARQLIEKHTPDSLVVLGGDCLVSLAPFSWLLEKYKDKLGILWIDSHPDVQTPKEYKNAHAHVLGELMGNGDSDFTRTVKHPVSPQKIMIAGIHDPLPYEANFISEHKIQTCSPEQVRSGAQPVLDWIKNEKIEYLAIHIDLDVLDPHNFRSVLFAKPGRGQHDFGDVAEGKLNIPDVVKLANQAASISKAVGLTIAEHLPWDALNLKNMLEELPLIGK
notes: full length Met1-Lys290; E. coli BL21(DE3) Star, pSKB3, N-terminal His6 with TEV site (25 extra residues); GH left after cleavage; EDTA-dialysed; dimer 64 kDa
Km (purified protein): 6.8 mM
kcat (purified protein): 302 s^–1

B2: arginase from Zymomonas mobilis ZM4 (zmARG) (enzyme, Zymomonas mobilis subsp. mobilis ZM4)
chain: GHMSSINKPLRLIFPQWQGGDNPPYYLGSQLLAWLSPDPKGAVEEVPVPKPTGEPLQEENGIVGRSILIDQLSEARQLIEKHTPDSLVVLGGDCLVSLAPFSWLLEKYKDKLGILWIDSHPDVQTPKEYKNAHAHVLGELMGNGDSDFTRTVKHPVSPQKIMIAGIHDPLPYEANFISEHKIQTCSPEQVRSGAQPVLDWIKNEKIEYLAIHIDLDVLDPHNFRSVLFAKPGRGQHDFGDVAEGKLNIPDVVKLANQAASISKAVGLTIAEHLPWDALNLKNMLEELPLIGK
notes: two additional amino acids left at the N-terminus after TEV cleavage of the vector-encoded His6 tag; arginase zmARG, product of the ZMO0432 gene of Zymomonas mobilis subsp. mobilis ZM4, Met1-Lys290, amplified from genomic DNA; Two zinc ions are modelled in the active site of each subunit in the crystal; A Se-Met substituted form (made in B834 (DE3)) was used for phasing only; also called ZMO0432 …
stoichiometry N [1]: 2
